The results in this text go back to publication PMC3923060, “HCV Core Residues Critical for Infectivity Are Also Involved in Core-NS5A Complex Formation” (PLoS ONE, 2014).

In assay [1] the target is 3xFlag-Core R50A (hepatitis C virus genotype 2a, strain JFH1). Briefly: co-IP; SGR-JFH1 (Huh7 subgenomic JFH1 replicon) cells transfected with 3xFlag-Core (wild type or mutants); anti-Flag M2 agarose, eluted with 3xFLAG peptide; anti-NS5A blot, quantified by IR fluorescence and normalised to precipitated core and expression, three experiments.
The target in assay [2] is 3xFlag-Core R59A (hepatitis C virus genotype 2a, strain JFH1). The description is as above.
Assay [3] concerns the target 3xFlag-Core R62A (hepatitis C virus genotype 2a, strain JFH1). Described as above.
In assay [4] the target is Core-Flag-R50A/K51A/R59A/R62A (hepatitis C virus genotype 2a, strain JFH1). Nature of the assay: co-IP; Huh7.5.1 stable cell lines expressing full-length JFH1-Luc/Neo-Core-Flag genomes (wild type or core mutants); anti-Flag M2 agarose, eluted with 3xFLAG peptide; anti-NS5A blot, quantified by IR fluorescence, three experiments.
In assay [5] the target is T1, full-length NS5A-His (hepatitis C virus genotype 2a, strain …, UniProt Q99IB8 1977-2442).
T1 construct: HCV nonstructural protein 5A (NS5A), genotype 2a strain JFH1, full-length; pET-UbCHis vector; also called recombinant NS5A-His; source: E. coli BL21(DE3)pCG1, purified as described previously [60]; not shown: His6, C-terminal, kept
T1 sequence: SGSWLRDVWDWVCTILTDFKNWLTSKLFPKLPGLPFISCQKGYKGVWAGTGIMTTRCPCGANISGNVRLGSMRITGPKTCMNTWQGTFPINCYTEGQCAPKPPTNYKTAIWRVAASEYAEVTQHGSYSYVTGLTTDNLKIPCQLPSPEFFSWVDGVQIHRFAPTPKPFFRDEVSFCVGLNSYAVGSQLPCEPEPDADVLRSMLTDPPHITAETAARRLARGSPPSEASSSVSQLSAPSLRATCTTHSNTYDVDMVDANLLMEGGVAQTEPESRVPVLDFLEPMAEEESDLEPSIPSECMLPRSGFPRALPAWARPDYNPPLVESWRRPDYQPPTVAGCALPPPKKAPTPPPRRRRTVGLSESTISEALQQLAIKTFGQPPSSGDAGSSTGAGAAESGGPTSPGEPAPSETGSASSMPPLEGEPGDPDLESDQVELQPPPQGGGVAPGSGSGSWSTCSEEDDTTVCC
Briefly: pull-down; 4 µg GST protein (bait) mixed with 10 µg NS5A protein in 100 µl binding buffer (50 mM Tris-HCl pH 7.5, 100 mM NaCl, 5 mM MgCl2, 10% glycerol, 0.5% Igepal CA-630, 1 mM DTT), 3 h at 4°C, then glutathione beads 1 h; Western blot (anti-NS5A, anti-Flag), in Figure 3 quantified by IR fluorescence. The settings on record: both partners purified.

In assay [6] the target is T1, full-length NS5A-His. Nature of the assay: pull-down; as a4, proteins treated with 1, 5 or 10 µM BMS-790052 for 30 min at 4°C. As to conditions: both partners purified.

For “subgenomic NS5A (from UniProt Q99IB8 1977-2442) (natural protein)”, the percent reduction in NS5A binding against wild type amounted to 8% in assay [1], 65% in assay [2] and 17% in assay [3].
The molecule “NS5A from JFH1-Luc/Neo-Core-Flag expressing cells (from UniProt Q99IB8 1977-2442) (natural protein)” had a percent reduction in NS5A binding against wild-type core in assay [4] of 85%.

B1: GST-Core-BD2-His (domain or fragment)
chain: PRRGPRLGVRTTRKTSERSQPRGRRQPIPKDRRSTGK
notes: HCV core protein, genotype 2a strain JFH1, residues 38-74 (basic domain 2); linker as in m1; also called GST-Core38-74-His; GST-BD2-His; not shown: GST, N-terminal, kept; His6, C-terminal, kept
Take B1: in the assay with full-length NS5A-His [5], the binding result is listed as “binds”.

B2: GST-Core2-23-His (domain or fragment)
chain: STNPKPQRKTKRNTNRRPEDVK
notes: HCV core protein, genotype 2a strain JFH1, residues 2-23 (basic domain 1); linker as in m1; also called BD1; BD1 (2-23); not shown: GST, N-terminal, kept; His6, C-terminal, kept
B2: in the assay with full-length NS5A-His [5], the binding result is “binds”.

B3: GST-Core1-170-His (domain or fragment)
chain: MSTNPKPQRKTKRNTNRRPEDVKFPGGGQIVGGVYLLPRRGPRLGVRTTRKTSERSQPRGRRQPIPKDRRSTGKAWGKPGRPWPLYGNEGLGWAGWLLSPRGSRPSWGPTDPRHRSRNVGKVIDTLTCGFADLMGYIPVVGAPLSGAARAVAHGVRVLEDGVNYATGNLP
notes: HCV core protein, genotype 2a strain JFH1, residues 1-170 (domains D1 and D2); pGEX-2T; also called GST-Core-His; core (D1 and D2 domains); not shown: GST, N-terminal, kept; His6, C-terminal, kept
With B3, in the assay with full-length NS5A-His [6], the binding result is on record as “binds”.

B4: GST-Core101-121-His (domain or fragment)
chain: RGSRPSWGPTDPRHRSRNVGK
notes: HCV core protein, genotype 2a strain JFH1, residues 101-121 (basic domain 3); linker as in m1; also called BD3; BD3 (101-121); not shown: GST, N-terminal, kept; His6, C-terminal, kept
On to B4, for which, in the assay with full-length NS5A-His [5], the binding result was “binds”.
